Experimental data reported in patent publication US20220153821A1 (PROTHENA BIOSCIENCES, published 2022).
Numbering of substitutions follows the chain as printed. Blank lines part the entries; values can stand above or below the binder they belong to.

Key:
recombinant human tau [1] = molecular target: T1, recombinant human tau (human, UniProt P10636-6 1-383, limits assumed); test: SPR, Biacore T200, antibody captured by anti-human antibody, tau as analyte, single cycle, 1:1 fit
T1 construct: also called recombinant tau
Protocol: Affinity of purified humanized variants to tau were determined by surface plasmon resonance (SPR). SPR analysis was performed using a Biacore T200 to determine the binding kinetics of humanized antibodies to recombinant human tau. To prepare a sensor surface, anti-human antibody (GE Life Sciences) was immobilized on sensor chip CM3 via amine coupling, and antibody was captured at a level to ensure maximum binding of 50 RU. Various concentrations of recombinant tau ranging from 50-0.62 nM were passed over the captured ligand at a flow rate of 50 μL/min in running buffer (HBS+0.05% P-20, 1 mg/mL BSA), in a single cycle manner. Data were double-referenced to both an irrelevant sensor not containing antibody ligand, and 0 nM analyte concentration to account for the dissociation of ligand from the capture moiety. Data were then analyzed using a 1:1 fit. Results are presented in Table 9, in columns labeled “k₀ (M⁻¹s⁻¹), koff (s⁻¹), and Kd (nM).”

recombinant human tau [2] = molecular target: recombinant human tau (human, UniProt P10636 1-383); test: SPR, Biacore T200: antibody captured on anti-mouse CM5 chip, recombinant human tau 10-0.14 nM as analyte, global 1:1 fit
Protocol: (§1) Methods: SPR analysis was performed using a Biacore T200 to determine the binding kinetics of murine antibodies to recombinant human tau. To prepare a sensor surface, anti-mouse antibody (GE Life Sciences) was immobilized on sensor chip CM5 via amine coupling, and antibody was captured at a level to ensure maximum binding of 50 RU. Various concentrations of recombinant tau ranging from 10-0.14 nM were passed over the captured ligand at a flow rate of 50 μL/min in running buffer (HBS+0.05% P-20, 1 mg/mL BSA), for 180 sec association and 900 sec dissociation. Data were double-referenced to both an irrelevant sensor not containing antibody ligand, and 0 nM analyte concentration to account for the dissociation of ligand from the capture moiety. Data was then analyzed using a global 1:1 fit.
(§2) Results: Multiple murine antibodies were selected based on their performance in a battery of ELISA assays, and their binding affinities were assessed via SPR. Antibodies were tested in parallel sets, and their binding association and dissociation rates were compared to select the highest binder to recombinant human tau.

recombinant human tau [3] = molecular target: T1, recombinant human tau; test: as above
Protocol: as §1, §2

T1 sequence (P10636 other isoform, or with tags, fused parts or gaps limits assumed): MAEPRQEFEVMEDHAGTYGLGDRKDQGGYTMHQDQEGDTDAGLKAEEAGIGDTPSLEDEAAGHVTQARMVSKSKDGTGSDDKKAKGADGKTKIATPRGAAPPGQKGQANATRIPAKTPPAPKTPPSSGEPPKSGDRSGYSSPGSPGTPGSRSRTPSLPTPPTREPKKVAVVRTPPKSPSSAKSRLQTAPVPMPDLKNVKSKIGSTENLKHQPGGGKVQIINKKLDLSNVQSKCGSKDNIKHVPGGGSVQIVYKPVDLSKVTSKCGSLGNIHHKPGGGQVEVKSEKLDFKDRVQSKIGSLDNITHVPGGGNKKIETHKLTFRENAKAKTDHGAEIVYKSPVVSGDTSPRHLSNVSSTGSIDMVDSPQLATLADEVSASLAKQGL
Chain of recombinant human tau (human, UniProt P10636 1-383) (P10636 other isoform, or with tags, fused parts or gaps): as the sequence (P10636 other isoform, or with tags, fused parts or gaps limits assumed) above

B1: Hu3D6VHvb4 / Hu3D6VLvb2 (antibody, V domains shown)
VH: EVQLVQSGAEVVKPGATVKISCKASGFTIKDYYLHWVRQRPGKGLEWIGWIDPENGDTIYDPKFQGRVTITADTSTDTAYMELSSLRSEDTAVYYCSTLDFWGQGTLVTVSS
VL: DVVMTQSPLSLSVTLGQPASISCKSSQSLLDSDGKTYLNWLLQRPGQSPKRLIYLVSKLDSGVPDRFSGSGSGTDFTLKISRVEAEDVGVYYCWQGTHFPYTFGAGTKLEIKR
notes: Humanized 3D6 variant, expressed as intact antibody in HEK-293 cells; also called VHvb4/VLvb2
- Kd (recombinant human tau [1]): 4.2 nM
- koff (recombinant human tau [1]): 0.0029 s⁻¹
- kon (recombinant human tau [1]): 690000 M⁻¹ s⁻¹

B3: Hu3D6VHvb5 / Hu3D6VLvb3 (antibody, V domains shown)
VH: B1 VH with N55D, D57E
VL: DVVMTQSPLSLSVTLGEPASISCRSSQSLLDSDGKTYLNWLQQRPGQSPRRLIYLVSKLDSGVPDRFSGSGSGTDFTLKISRVEAEDVGVYYCWQGTHFPYTFGQGTKLEIKR
notes: Humanized 3D6 variant, expressed as intact antibody in HEK-293 cells; also called VHvb5/VLvb3
- Kd (recombinant human tau [1]): 1.4 nM
- koff (recombinant human tau [1]): 0.0028 s⁻¹
- kon (recombinant human tau [1]): 2e+06 M⁻¹ s⁻¹

B4: Hu3D6VHvb5 / Hu3D6VLvb2 (antibody, V domains shown)
VH: B1 VH with N55D, D57E
VL: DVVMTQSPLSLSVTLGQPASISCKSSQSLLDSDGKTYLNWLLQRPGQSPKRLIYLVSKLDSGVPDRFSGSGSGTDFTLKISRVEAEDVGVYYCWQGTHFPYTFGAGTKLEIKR
notes: Humanized 3D6 variant, expressed as intact antibody in HEK-293 cells; also called VHvb5/VLvb2
- Kd (recombinant human tau [1]): 1.44 nM
- koff (recombinant human tau [1]): 0.0026 s⁻¹
- kon (recombinant human tau [1]): 1.8e+06 M⁻¹ s⁻¹

B7: Hu3D6VHvb3 / Hu3D6VLvb3 (antibody, V domains shown)
VH: B1 VH with T28N, V68A
VL: B3 VL
notes: Humanized 3D6 variant, expressed as intact antibody in HEK-293 cells; also called VHvb3/VLvb3
- Kd (recombinant human tau [1]): 1.13 nM
- koff (recombinant human tau [1]): 0.0018 s⁻¹
- kon (recombinant human tau [1]): 1.6e+06 M⁻¹ s⁻¹

B8: Hu3D6VHvb2 / Hu3D6VLvb3 (antibody, V domains shown)
VH: B1 VH with T17S, T28N, I59V, V68A, M81L, R87T, Y95F
VL: B3 VL
notes: Humanized 3D6 variant, expressed as intact antibody in HEK-293 cells; also called VHvb2/VLvb3
- Kd (recombinant human tau [1]): 0.19 nM
- koff (recombinant human tau [1]): 0.0003 s⁻¹
- kon (recombinant human tau [1]): 1.6e+06 M⁻¹ s⁻¹

B9: Hu3D6VHvb2 / Hu3D6VLvb2 (antibody, V domains shown)
VH: B1 VH with T17S, T28N, I59V, V68A, M81L, R87T, Y95F
VL: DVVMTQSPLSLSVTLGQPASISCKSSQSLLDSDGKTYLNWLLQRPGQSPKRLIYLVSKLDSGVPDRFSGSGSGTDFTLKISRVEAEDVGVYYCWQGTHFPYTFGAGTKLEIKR
notes: Humanized 3D6 variant, expressed as intact antibody in HEK-293 cells; also called VHvb2/VLvb2
- Kd (recombinant human tau [1]): 0.04 nM
- koff (recombinant human tau [1]): 5.7e-05 s⁻¹
- kon (recombinant human tau [1]): 1.5e+06 M⁻¹ s⁻¹

B10: Hu3D6VHvb4 / Hu3D6VLvb3 (antibody, V domains shown)
VH: B1 VH
VL: B3 VL
notes: Humanized 3D6 variant, expressed as intact antibody in HEK-293 cells; also called VHvb4/VLvb3
- Kd (recombinant human tau [1]): 3.74 nM
- koff (recombinant human tau [1]): 0.0034 s⁻¹
- kon (recombinant human tau [1]): 910000 M⁻¹ s⁻¹

B11: Hu3D6VHvb3 / Hu3D6VLvb2 (antibody, V domains shown)
VH: B1 VH with T28N, V68A
VL: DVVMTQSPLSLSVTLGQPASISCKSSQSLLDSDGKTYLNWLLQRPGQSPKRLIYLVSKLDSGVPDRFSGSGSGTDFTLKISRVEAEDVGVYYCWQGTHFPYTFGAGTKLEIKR
notes: Humanized 3D6 variant, expressed as intact antibody in HEK-293 cells; also called VHvb3/VLvb2
- Kd (recombinant human tau [1]): 1.07 nM
- koff (recombinant human tau [1]): 0.0015 s⁻¹
- kon (recombinant human tau [1]): 1.4e+06 M⁻¹ s⁻¹

B12: Hu3D6VHvb6 / Hu3D6VLvb2 (antibody, V domains shown)
VH: B1 VH with N55D, D57E, I59V, Y95F
VL: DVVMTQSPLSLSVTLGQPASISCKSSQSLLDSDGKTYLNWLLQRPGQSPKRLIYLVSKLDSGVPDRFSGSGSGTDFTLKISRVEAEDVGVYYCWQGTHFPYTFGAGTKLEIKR
notes: Humanized 3D6 variant, expressed as intact antibody in HEK-293 cells; also called VHvb6/VLvb2
- Kd (recombinant human tau [1]): 0.107 nM
- koff (recombinant human tau [1]): 0.000369 s⁻¹
- kon (recombinant human tau [1]): 3.45e+06 M⁻¹ s⁻¹

B14: Hu3D6VHvb1 / Hu3D6VLvb1 (antibody, V domains shown)
VH: QVQLQQSGAELVKPGASVKLSCTASGFNIKDYYLHWVKQRPEQGLEWIGWIDPENGDTVYDPKFQGKATITADTSSNTAYLQLSSLTSEDTAVYFCSTLDFWGQGTTLTVSS
VL: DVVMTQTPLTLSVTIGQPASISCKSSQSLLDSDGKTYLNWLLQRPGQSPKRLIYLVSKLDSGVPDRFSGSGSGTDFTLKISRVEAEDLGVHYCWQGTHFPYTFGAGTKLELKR
notes: Humanized 3D6 variant, transiently expressed as intact antibody in HEK-293 cells; also called VHvb1/VLvb1
- Kd (recombinant human tau [1]): 0.64 nM
- koff (recombinant human tau [1]): 0.0009 s⁻¹
- kon (recombinant human tau [1]): 1.4e+06 M⁻¹ s⁻¹

B15: 8A4 (antibody, V domains shown)
VH: B14 VH with Q1E, K13R, S17L, T23K, L34I, K63Q, G66D, T69N, D90G, F95Y
VL: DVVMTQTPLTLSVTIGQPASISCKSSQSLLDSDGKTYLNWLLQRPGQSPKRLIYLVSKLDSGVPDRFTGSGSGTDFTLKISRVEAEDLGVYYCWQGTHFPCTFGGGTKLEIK
- Kd (recombinant human tau [2]): 3.8 nM
- koff (recombinant human tau [2]): 0.00227 s⁻¹
- kon (recombinant human tau [2]): 599000 M⁻¹ s⁻¹

The remaining lines, values ahead:

- Kd (recombinant human tau [1]): 0.252 nM
- koff (recombinant human tau [1]): 0.000779 s⁻¹
- kon (recombinant human tau [1]): 3.09e+06 M⁻¹ s⁻¹
B2: Hu3D6VHvb7 / Hu3D6VLvb2 (antibody, V domains shown)
VH: B1 VH with N55D, D57E, I59V
VL: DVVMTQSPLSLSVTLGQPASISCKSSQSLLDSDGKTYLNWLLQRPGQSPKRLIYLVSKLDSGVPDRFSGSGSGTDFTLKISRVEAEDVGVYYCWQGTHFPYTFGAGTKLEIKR
notes: Humanized 3D6 variant, expressed as intact antibody in HEK-293 cells; also called VHvb7/VLvb2

- Kd (recombinant human tau [1]): 0.152 nM
- koff (recombinant human tau [1]): 0.000538 s⁻¹
- kon (recombinant human tau [1]): 3.54e+06 M⁻¹ s⁻¹
B5: Hu3D6VHvb6 / Hu3D6VLvb3 (antibody, V domains shown)
VH: B1 VH with N55D, D57E, I59V, Y95F
VL: B3 VL
notes: Humanized 3D6 variant, expressed as intact antibody in HEK-293 cells; also called VHvb6/VLvb3

- Kd (recombinant human tau [1]): 0.209 nM
- koff (recombinant human tau [1]): 0.00077 s⁻¹
- kon (recombinant human tau [1]): 3.69e+06 M⁻¹ s⁻¹
B6: Hu3D6VHvb7 / Hu3D6VLvb3 (antibody, V domains shown)
VH: B1 VH with N55D, D57E, I59V
VL: B3 VL
notes: Humanized 3D6 variant, expressed as intact antibody in HEK-293 cells; also called VHvb7/VLvb3

- Kd (recombinant human tau [2]): 6.78 nM
- koff (recombinant human tau [2]): 0.00254 s⁻¹
- kon (recombinant human tau [2]): 375000 M⁻¹ s⁻¹
B13: anti-tau antibody 5G8 (antibody, V domains shown)
VH: EVQLQQSGAELVRSGASVRLSCTASGFNIKDYYMHWVRQRPEQGLEWIGWIDPENGDTVYAPKFQGKATMTSDTSSNTAYLHLSSLTSEDTAVYYCSPLDFWGQGTTLTVSS
VL: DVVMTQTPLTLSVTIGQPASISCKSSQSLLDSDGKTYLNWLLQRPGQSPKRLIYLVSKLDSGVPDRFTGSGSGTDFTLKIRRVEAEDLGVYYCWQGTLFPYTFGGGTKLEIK

- Kd (recombinant human tau [3]): 0.46 nM
- koff (recombinant human tau [3]): 0.00119 s⁻¹
- kon (recombinant human tau [3]): 2.58e+06 M⁻¹ s⁻¹
B16: mouse 3D6 antibody (antibody, V domains shown)
VH: B14 VH with Q1E, E10D, K13R, S17L, T23K, K38R, S84G
VL: not shown
notes: Mouse monoclonal antibody from hybridoma; also called murine 3D6; m3D6
